Measurements taken from paper PMC5615192 (mBio, 2017).
Numbering of substitutions follows the chain as printed. In names and notes the source's numbering stands.

T1: HPV59 L1 VLP (human papillomavirus type 59)
T1 chain: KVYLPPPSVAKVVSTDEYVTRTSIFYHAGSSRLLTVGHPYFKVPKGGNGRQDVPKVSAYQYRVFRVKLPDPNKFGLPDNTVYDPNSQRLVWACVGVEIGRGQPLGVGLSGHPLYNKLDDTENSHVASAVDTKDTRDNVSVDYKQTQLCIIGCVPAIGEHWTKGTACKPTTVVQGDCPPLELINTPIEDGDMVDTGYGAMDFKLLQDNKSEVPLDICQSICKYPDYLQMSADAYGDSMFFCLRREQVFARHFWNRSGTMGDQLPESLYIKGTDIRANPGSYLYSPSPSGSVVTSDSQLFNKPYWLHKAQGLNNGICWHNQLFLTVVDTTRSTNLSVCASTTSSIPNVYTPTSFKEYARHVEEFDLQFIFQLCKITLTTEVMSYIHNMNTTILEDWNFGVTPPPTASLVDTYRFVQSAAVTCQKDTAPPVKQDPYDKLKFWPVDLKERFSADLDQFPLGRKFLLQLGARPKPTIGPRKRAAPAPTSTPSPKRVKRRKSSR

T2: HPV59 L1 pentamer (human papillomavirus type 59)
T2 chain: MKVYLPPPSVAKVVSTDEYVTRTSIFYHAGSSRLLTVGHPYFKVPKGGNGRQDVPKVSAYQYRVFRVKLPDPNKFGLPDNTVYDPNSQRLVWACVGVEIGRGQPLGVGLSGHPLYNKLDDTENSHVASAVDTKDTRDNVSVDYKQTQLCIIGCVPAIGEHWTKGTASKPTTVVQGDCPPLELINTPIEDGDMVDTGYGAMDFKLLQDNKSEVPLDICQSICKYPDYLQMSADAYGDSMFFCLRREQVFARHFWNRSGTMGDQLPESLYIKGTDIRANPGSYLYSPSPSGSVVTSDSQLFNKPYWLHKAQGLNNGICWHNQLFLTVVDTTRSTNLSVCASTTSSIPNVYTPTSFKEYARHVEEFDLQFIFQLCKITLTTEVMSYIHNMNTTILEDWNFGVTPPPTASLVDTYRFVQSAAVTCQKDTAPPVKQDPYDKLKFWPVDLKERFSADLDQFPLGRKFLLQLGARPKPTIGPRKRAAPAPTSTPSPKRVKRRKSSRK

T3: HPV58 L1 VLP R161A (human papillomavirus type 58) (UniProt P26535)
T3 sequence: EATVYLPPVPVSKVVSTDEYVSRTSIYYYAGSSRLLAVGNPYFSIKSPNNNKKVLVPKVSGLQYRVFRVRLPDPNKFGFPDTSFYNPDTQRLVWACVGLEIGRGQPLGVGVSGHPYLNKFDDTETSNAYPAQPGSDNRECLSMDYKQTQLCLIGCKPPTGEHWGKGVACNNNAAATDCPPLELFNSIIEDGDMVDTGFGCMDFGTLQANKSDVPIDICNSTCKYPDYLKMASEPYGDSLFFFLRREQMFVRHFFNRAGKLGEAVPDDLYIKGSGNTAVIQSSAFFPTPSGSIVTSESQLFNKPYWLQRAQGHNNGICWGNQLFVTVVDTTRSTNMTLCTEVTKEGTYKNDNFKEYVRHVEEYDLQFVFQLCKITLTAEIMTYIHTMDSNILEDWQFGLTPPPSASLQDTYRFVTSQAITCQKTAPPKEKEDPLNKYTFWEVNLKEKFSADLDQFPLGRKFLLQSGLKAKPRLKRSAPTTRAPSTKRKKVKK

T4: HPV58 L1 VLP N308A (human papillomavirus type 58) (UniProt P26535)
T4 sequence: T3 sequence with A128R, N275A

T5: HPV58 L1 VLP D154A (human papillomavirus type 58) (UniProt P26535)
T5 sequence: T3 sequence with D121A, A128R

T6: HPV58 L1 pentamer (human papillomavirus type 58, UniProt P26535 34-524)
T6 chain: T3 sequence with A128R

T7: HPV58 L1 VLP (human papillomavirus type 58, UniProt P26535 34-524)
T7 chain: T3 sequence with A128R

B1: MAb 28F10 (antibody, V domains shown)
VH: DVKLVESGGGLVKPGGSLKLSCAASGFPFSDYTMSWIRQTPEKRLEWVASISSGGTYTYYPDTVKGRFTISRDNAKNTLYLQMSSLKSEDTAMFYCTRASPYYDYDEGYMDYWGQGTSVTVSS
VL: DVVMTQTPLSLPVSLGDQASISCRSSQSLVHSNGNTYLHWYLQKSGQSPKLLIYKVSNRFSGVPDRFSGSGSGTDFTLKISRVEAEDLGVYFCSQSTHVPFTFGAGTKLELK
B2: HPV58 L1 pentamer R161A (natural protein)
chain: T3 sequence
B3: HPV58 L1 pentamer S168A (natural protein)
chain: T3 sequence with A128R, S135A
B4: HPV58 L1 pentamer N170A (natural protein)
chain: T3 sequence with A128R, N137A
B5: HPV58 L1 pentamer N308A (natural protein)
chain: T3 sequence with A128R, N275A
B6: HPV58 L1 pentamer Q165A (natural protein)
chain: T3 sequence with A128R, Q132A
B7: HPV58 L1 pentamer D154A (natural protein)
chain: T3 sequence with D121A, A128R
B8: MAb A12A3 (antibody, V domains shown)
VH: EVQLQQSGAELVRPGALVKLSCKASGFNIKDYYMHWVKQRPEQGLEWIGWIDPENGKTIYDPRFRGKASITADTSSNTAYLQLSSLTSEDAAVYYCATSNYRYDRSFDYWGQGTTLTVSA
VL: DIQMTQSPSSLFASLGGKVTITCKASQDINKYIAWFQHKPGKGPRLLIHYTFTLQPGIPSRFSGSGSGRDYSFSISNLEPEDIATYYCLQYHNLYTFGGGTKLEIK
notes: also called A12A3 IgG

How the values were obtained:
[1] = molecular target: HPV18 TQG L1 VLP (triple mutant T270Q, Q273E, G281D) (human papillomavirus type 18)
[2] = molecular target: HPV59 L1 pentamer M267A (human papillomavirus type 59); assay: ELISA; indirect ELISA; wells coated with wild-type or mutant VLPs or pentamers (300 ng/well, overnight at 4°C); 2-fold serial dilutions of the antibody, 1 h at 37°C; detected with HRP goat anti-mouse IgG
[3] = molecular target: HPV59 L1 pentamer Q270A (human papillomavirus type 59); assay: as above
[4] = molecular target: T1, HPV59 L1 VLP; assay: ELISA
[5] = molecular target: T2, HPV59 L1 pentamer; assay: ELISA
[6] = molecular target: MAb A12A3 (mouse); assay: SPR; Biacore 3000; MAb (10 ug/ml) captured on a CM-5 chip amine coupled with goat anti-mouse Fc fragment; serially diluted pentamer injected at 30 ul/min for 3.3 min; HBS (10 mM HEPES pH 7.4, 150 mM NaCl); three measurements, mean and standard deviation
[7] = molecular target: T8, HPV58 L1 pentamer (Human papillomavirus type 58 (GenBank …, UniProt P26535)); assay: SPR; Biacore 3000; MAb (10 ug/ml) […]; HBS (10 mM HEPES pH 7.4, 150 mM NaCl); […]; settings: both partners purified
T8 construct: also called HPV58p; HPV58 pentamer; source: cloned into pTO-T7

[8] = molecular target: HPV33 KAT L1 VLP (triple mutant K161R, A168S, T308N) (human papillomavirus type 33) (UniProt P06416)
[9] = molecular target: T3, HPV58 L1 VLP R161A (human papillomavirus type 58); assay: ELISA; indirect ELISA; wells coated with wild-type or mutant VLPs or pentamers (300 ng/well, overnight at 4°C); 2-fold serial dilutions of the antibody, 1 h at 37°C; detected with HRP goat anti-mouse IgG
[10] = molecular target: T4, HPV58 L1 VLP N308A (human papillomavirus type 58); assay: as above
[11] = molecular target: T5, HPV58 L1 VLP D154A (human papillomavirus type 58); assay: as above
[12] = molecular target: T6, HPV58 L1 pentamer; assay: ELISA
[13] = molecular target: T7, HPV58 L1 VLP; assay: ELISA

Binder | Ka [6] | Kd [6] | koff [6] | kon [6] | further results
B1 | – | – | – | – | IC50 of neutralisation of HPV18 TQG PsVs [1]: 0.0097 µg/mL; fold increase of the EC50 against the WT HPV59 pentamer [2]: 10 fold; fold increase of the EC50 against the WT HPV59 pentamer [3]: 20 fold; EC50 [4]: 0.005 µg/mL; EC50 [5]: 0.0464 µg/mL
B2 | 994000 M⁻¹ | 1120 nM | 9.98e-06 s⁻¹ | 10.1 M⁻¹ s⁻¹ | –
B3 | 1.62e+08 M⁻¹ | 6.28 nM | 0.000522 s⁻¹ | 54300 M⁻¹ s⁻¹ | –
B4 | 1.53e+08 M⁻¹ | 6.52 nM | 0.000644 s⁻¹ | 98400 M⁻¹ s⁻¹ | –
B5 | 8.99e+06 M⁻¹ | 112 nM | 0.0272 s⁻¹ | 243000 M⁻¹ s⁻¹ | –
B6 | 7.28e+07 M⁻¹ | 13.8 nM | 0.00228 s⁻¹ | 167000 M⁻¹ s⁻¹ | –
B7 | 4.18e+06 M⁻¹ | 240 nM | 0.102 s⁻¹ | 426000 M⁻¹ s⁻¹ | –
B8 | – | – | – | – | Ka [7]: 1.91e+08 M⁻¹; Kd [7]: 5.33 nM; koff [7]: 0.0004 s⁻¹; kon [7]: 78400 M⁻¹ s⁻¹; IC50 of neutralisation of the HPV33 KAT PsV mutant [8]: 4.3 µg/mL; fold increase of the EC50 against the WT HPV58 VLP [9]: 80 fold; fold increase of the EC50 against the WT HPV58 VLP [10]: 2 fold; fold increase of the EC50 against the WT HPV58 VLP [11]: 2 fold; EC50 [12]: 0.0085 µg/mL; EC50 [13]: 0.0104 µg/mL
